According to patent US20220403363A1:

Legend:
[1] = tested on: GlbD second part (from the T domain) without SZ
[2] = tested on: GlbD second part (from the T domain) with SZ18
[3] = tested on: gxpS_A3T3C/E4A4T4TE without SYNZIP (protein encoded by plasmid pJW83)
[4] = tested on: SYNZIP18-gxpS_A3T3C/E4A4T4TE (protein encoded by plasmid pJW76)
[5] = target: gxpS_A3T3C/E4A4T4TE without SYNZIP (protein encoded by plasmid pJW83); assay: cell-based or functional assay
[6] = tested on: T1, SYNZIP18-xtpS_T2C3A3T3C/E4A4T4TE (protein encoded by plasmid pNA5)
T1 sequence: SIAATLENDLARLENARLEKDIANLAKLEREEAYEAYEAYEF

[7] = tested on: xtpS_T2-TE without SYNZIP (protein encoded by plasmid pNA12)
[8] = tested on: T2, SYNZIP18-xtpS_A3T3C/E4A4T4TE (protein encoded by plasmid pJW62)
T2 sequence: T1 sequence

[9] = tested on: xtpS_A3T3C/E4A4T4TE without SYNZIP (protein encoded by plasmid pJW64)

## GlbD first part (up to the A domain) with SZ17
[1]
  glidobactin A production, negative control without one SZ: In the negative controls without in each case one or both SZs, there is virtually no glidobactin A production
[2]
  glidobactin A production by the PKS/NRPS hybrid with divided GlbD: leads to a complete synthesis of the glidobactin peptide

## GlbD first part (up to the A domain) without SZ
[1]
  glidobactin A production, negative control without both SZs: In the negative controls without in each case one or both SZs, there is virtually no glidobactin A production
[2]
  glidobactin A production, negative control without one SZ: In the negative controls without in each case one or both SZs, there is virtually no glidobactin A production

## ambS_A1T1C/E2A2T2C3-SYNZIP17 (protein encoded by plasmid pJW91)
[3]
  production of peptide 9 by NRPS-3b (no N-terminal SZ) relative to NRPS-3a (HPLC-MS): peptide 9 to ˜18%
  production of peptides 7 and 8 by NRPS-3b (no N-terminal SZ) relative to NRPS-3a (HPLC-MS): 7 and 8 were only produced to ˜50%
[4]
  peptide production by NRPS-3a in E. coli (HPLC-MS), peptides 7, 8 and 9: The peptides 7, 8 and 9, which eluted at a retention time of 6 min, 7.1 min and 7 min, could be identified on the basis of their mass

## szeS_C1A1T1C/E2A2T2C3-SYNZIP17 (protein encoded by plasmid pJW92)
[4]
  peptide production by NRPS-4a in E. coli (HPLC-MS), peptides 10 and 11: Both the mass of 10 and the mass of 11 could be detected in the extracted ion chromatogram (EIC)

## szeS_C1A1T1C/E2A2T2C3-SYNZIP17 (protein encoded by plasmid pJW92) (enzyme)
[5]
  decrease of peptides 10 and 11 in NRPS-4b (no N-terminal SZ) against NRPS-4a (HPLC-MS): 80 % decrease

## xldS_C1A1T1C/E2A2T2C3-SYNZIP17 (protein encoded by plasmid pJW93)
[3]
  peptide production by NRPS-5b (negative control without SZ18) against NRPS-5a (HPLC-MS): the negative control (NRPS-5b) showed no significant difference in peptide production from the NRPS-5a construct
[4]
  peptide production by NRPS-5a in E. coli (HPLC-MS): showed the production of most expected derivatives

## xtpS_A1T1C/E2A2 without SYNZIP (protein encoded by plasmid pNA11)
[6]
  decrease in productivity of NRPS-14c compared to NRPS-14a (told of the controls overall): Overall, the controls showed a decrease in productivity of 90% compared to NRPS-14a
  production of peptides 2 and 1 by NRPS-14c (no C-terminal SZ), % of WT level (HPLC-MS): showed a very low production of the cyclic product 2 and absolutely no production of the linear peptide 1 at ˜3-10% of the WT level
[7]
  decrease in productivity of NRPS-14d compared to NRPS-14a (told of the controls overall): Overall, the controls showed a decrease in productivity of 90% compared to NRPS-14a
  production of peptides 2 and 1 by NRPS-14d (no SZs), % of WT level (HPLC-MS): showed a very low production of the cyclic product 2 and absolutely no production of the linear peptide 1 at ˜3-10% of the WT level

## xtpS_A1T1C/E2A2T2C3 without SYNZIP (protein encoded by plasmid pJW63)
[8]
  decrease in production of cyclic peptide 2 by NRPS-16c in relation to NRPS-16a (both SZs): control NRPS-16c shows a decrease in the production of cyclic peptide 2 by 80%
  production of peptide 2 by NRPS-16c (no C-terminal SZ), % of WT level (HPLC-MS): NRPS-16c showed only a very low production of 2 with 3.2% of the WT level
[9]
  peptide production by NRPS-16d (no SZs) (HPLC-MS): showed no peptide production for control experiments NRPS-16b and NRPS-16d

## xtpS_A1T1C/E2A2T2C3-GS(4)-SYNZIP17 (protein encoded by plasmid pNA10)
[8]
  increase in productivity for cyclic peptide 2 against the construct without linker (average over NRPS-15b, -15c, -15d): an average increase in productivity of ˜37% for cyclic 2 and ˜26% for linear peptide 1
  increase in productivity for linear peptide 1 against the construct without linker (average over NRPS-15b, -15c, -15d): an average increase in productivity of ˜37% for cyclic 2 and ˜26% for linear peptide 1
  production of cyclic product 2 by NRPS-15d (4 AS GS linker) (HPLC-MS): the cyclic product 2 with almost WT level was produced for all constructions with GS linker

## xtpS_A1T1C/E2A2T2C3-GS(8)-SYNZIP17 (protein encoded by plasmid pNA9)
[8]
  increase in productivity for cyclic peptide 2 against the construct without linker (average over NRPS-15b, -15c, -15d): an average increase in productivity of ˜37% for cyclic 2 and ˜26% for linear peptide 1
  increase in productivity for linear peptide 1 against the construct without linker (average over NRPS-15b, -15c, -15d): an average increase in productivity of ˜37% for cyclic 2 and ˜26% for linear peptide 1
  production of cyclic product 2 by NRPS-15c (8 AS GS linker) (HPLC-MS): the cyclic product 2 with almost WT level was produced for all constructions with GS linker

## xtpS_A1T1C/E2A2T2C3-GS(10)-SYNZIP17 (protein encoded by plasmid pNA8)
[8]
  increase in productivity for cyclic peptide 2 against the construct without linker (average over NRPS-15b, -15c, -15d): an average increase in productivity of ˜37% for cyclic 2 and ˜26% for linear peptide 1
  increase in productivity for linear peptide 1 against the construct without linker (average over NRPS-15b, -15c, -15d): an average increase in productivity of ˜37% for cyclic 2 and ˜26% for linear peptide 1
  production of cyclic product 2 by NRPS-15b (10 AS GS linker) (HPLC-MS): the cyclic product 2 with almost WT level was produced for all constructions with GS linker

## xtpS_A1T1C/E2A2T2C3-SYNZIP19 (protein encoded by plasmid pNA1)
[8]
  production of cyclic peptide 2 by NRPS-16 (C-A split, SZ19/18) relative to WT XtpS (HPLC-MS): 13% (NRPS-16)
  production of linear peptide 1 by NRPS-16 (HPLC-MS): NRPS-16 showed no production of 1
[9]
  peptide production by NRPS-16b (no N-terminal SZ) (HPLC-MS): showed no peptide production for control experiments NRPS-16b and NRPS-16d
